Laboratory results as given in paper PMC6557900 (Nature Communications, 2019).
Where no end group is shown, it is not given here. [ ]: non-standard residue; d: D form. pY = N[C@@H](Cc1ccc(OP(=O)(O)O)cc1)C(=O)O

Experiments:
Conditions in all cases: both partners purified
[1] = target: T1, SOCS2-ElonginB-ElonginC complex, wild-type (human | , UniProt O14508 32-198; Q15370 1-104; Q15369 17-112); test: 19F ligand-observed CPMG NMR displacement assay; peptide (GHR 10 μM, EpoR 50 μM) displaces the fluorinated pY analog spy molecule 3 (100 μM) from SBC (5 μM); 20 mM HEPES pH 8, 50 mM NaCl, 1 mM DTT, 20% D2O, 298 K
T1 sequence (O14508 32-198, chain 1 of 3): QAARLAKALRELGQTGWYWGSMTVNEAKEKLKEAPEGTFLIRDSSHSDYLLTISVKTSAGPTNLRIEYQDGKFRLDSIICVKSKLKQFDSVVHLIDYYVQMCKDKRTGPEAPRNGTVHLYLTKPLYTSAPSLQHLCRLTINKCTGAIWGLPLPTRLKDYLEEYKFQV
T1 sequence (Q15370 1-104, chain 2 of 3): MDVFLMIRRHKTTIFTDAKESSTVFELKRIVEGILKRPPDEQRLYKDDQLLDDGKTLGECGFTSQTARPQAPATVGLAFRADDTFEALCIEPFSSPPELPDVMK
T1 sequence (Q15369 17-112, chain 3 of 3): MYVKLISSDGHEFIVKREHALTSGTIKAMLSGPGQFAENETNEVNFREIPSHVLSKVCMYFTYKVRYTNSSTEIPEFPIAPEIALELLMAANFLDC

[2] = target: T1, SOCS2-ElonginB-ElonginC complex, …; test: SPR; biotinylated SBC (wild-type or mutant) immobilised, peptide injected at 0.08-60 μM; 20 mM HEPES pH 7.5, 150 mM NaCl, 1 mM TCEP, 0.005% Tween20, 10 °C; steady-state affinity, 1:1 model
[3] = target: T2, SOCS2(C133Y)-ElonginB-ElonginC complex (human | , UniProt O14508 32-198; Q15370 1-104; Q15369 17-112, C133Y); test: as above
T2 construct: also called SBC C133Y; source: E. coli BL21(DE3), co-expressed, purified (as wild-type SBC); not shown: His6, N-terminal, cleaved; copies: + +

[4] = target: T3, SOCS2-ElonginB-ElonginC complex, wild-type (human | , UniProt O14508 32-198; Q15370 1-104; Q15369 17-112); test: as above
T3 construct: Untagged in ITC and NMR; also called SBC; wild-type SBC; source: E. coli BL21(DE3), co-expressed, purified (HisTrap, TEV cleavage, second HisTrap, SEC Superdex 75); not shown: His6, N-terminal, cleaved; copies: + +
T3 sequence (O14508 32-198, chain 1 of 3): as the sequence (O14508 32-198, chain 1 of 3) above
T3 sequence (Q15370 1-104, chain 2 of 3): as the sequence (Q15370 1-104, chain 2 of 3) above
T3 sequence (Q15369 17-112, chain 3 of 3): as the sequence (Q15369 17-112, chain 3 of 3) above

[5] = target: T4, SOCS2(L106V)-ElonginB-ElonginC complex (human | , UniProt O14508 32-198; Q15370 1-104; Q15369 17-112, L106V); test: as above
T4 construct: also called SBC L106V; source: E. coli BL21(DE3), co-expressed, purified (as wild-type SBC); not shown: His6, N-terminal, cleaved; copies: + +

[6] = target: T3, SOCS2-ElonginB-ElonginC complex, …; test: ITC; peptide (750 or 1500 μM) titrated into SBC (50 μM); 100 mM HEPES pH 7.5, 50 mM NaCl, 0.5 mM TCEP, 298 K; one-set-of-site model

T4 sequence (O14508 32-198 L106V, chain 1 of 3): as the sequence (O14508 32-198, chain 1 of 3) above, with L75V counted along it
T4 sequence (Q15370 1-104, chain 2 of 3): as the sequence (Q15370 1-104, chain 2 of 3) above
T4 sequence (Q15369 17-112, chain 3 of 3): as the sequence (Q15369 17-112, chain 3 of 3) above
T2 sequence (O14508 32-198 C133Y, chain 1 of 3): as the sequence (O14508 32-198, chain 1 of 3) above, with C102Y counted along it
T2 sequence (Q15370 1-104, chain 2 of 3): as the sequence (Q15370 1-104, chain 2 of 3) above
T2 sequence (Q15369 17-112, chain 3 of 3): as the sequence (Q15369 17-112, chain 3 of 3) above

| Binder | Ki [1] | Kd [2] | other results |
| --- | --- | --- | --- |
| ASFE[pY]TILDAS-NH2 [EpoR_pY426 peptide, alanine at pY(+5)] | 6.9 µM | 8.9 µM |  |
| PRPD[pY]TSIHIV-NH2 [GHR_pY595 peptide V(−3)R] | 20.6 µM | 9 µM |  |
| ASFE[pY]TILAPS-NH2 [EpoR_pY426 peptide, alanine at pY(+4)] | 14.1 µM | 18 µM |  |
| PVPD[pY]TSIAIV-NH2 [GHR_pY595 peptide, alanine at pY(+4)] | 18.5 µM | 6.7 µM |  |
| PVPD[pY]TSIHIA-NH2 [GHR_pY595 peptide, alanine at pY(+6)] |  | 1.9 µM |  |
| ASFE[pY]TIADPS-NH2 [EpoR_pY426 peptide, alanine at pY(+3)] | 20.4 µM | 32.3 µM |  |
| ASFE[pY]TILDPA-NH2 (N-terminus assumed; SMILES CC[C@H](C)[C@H](NC(=O)[C@@H](NC(=O)[C@H](Cc1ccc(OP(=O)(O)O)cc1)NC(=O)[C@H](CCC(=O)O)NC(=O)[C@H](Cc1ccccc1)NC(=O)[C@H](CO)NC(=O)[C@H](C)N)[C@@H](C)O)C(=O)N[C@@H](CC(C)C)C(=O)N[C@@H](CC(=O)O)C(=O)N1CCC[C@H]1C(=O)N[C@@H](C)C(N)=O) [EpoR_pY426 peptide, alanine at pY(+6)] | 11.3 µM | 16.4 µM |  |
| ASFE[pY]AILDPS-NH2 (N-terminus assumed; SMILES CC[C@H](C)[C@H](NC(=O)[C@H](C)NC(=O)[C@H](Cc1ccc(OP(=O)(O)O)cc1)NC(=O)[C@H](CCC(=O)O)NC(=O)[C@H](Cc1ccccc1)NC(=O)[C@H](CO)NC(=O)[C@H](C)N)C(=O)N[C@@H](CC(C)C)C(=O)N[C@@H](CC(=O)O)C(=O)N1CCC[C@H]1C(=O)N[C@@H](CO)C(N)=O) [EpoR_pY426 peptide, alanine at pY(+1)] | 10.3 µM | 17.1 µM |  |
| PAPD[pY]TSIHIV-NH2 [GHR_pY595 peptide, alanine at pY(−3)] | 3.4 µM |  |  |
| PVPD[pY]ASIHIV-NH2 [GHR_pY595 peptide, alanine at pY(+1)] | 0.5 µM | 1 µM |  |
| NIDF[pY]AQVSDI-NH2 (growth hormone receptor (GHR), 11-residue peptide around pY487; source: synthetic peptide (solid-phase, Fmoc, Rink amide resin), HPLC purified) [GHR_pY487 phosphopeptide (growth hormone receptor)] |  |  | Kd [3]: 7.7 µM; Kd [4]: 5.1 µM; Kd [5]: 8.9 µM; Kd [6]: 2.3 µM |
| PYPD[pY]TSIHIV-NH2 [GHR_pY595 peptide V(−3)Y] | 3.3 µM | 3.3 µM |  |
| PVPD[pY]TSAHIV-NH2 [GHR_pY595 peptide, alanine at pY(+3)] | 3.4 µM | 3.7 µM |  |
| ASFA[pY]TILDPS-NH2 [EpoR_pY426 peptide, alanine at pY(−1)] | 23.5 µM | 21.7 µM |  |
| ASFE[pY]TALDPS-NH2 [EpoR_pY426 peptide, alanine at pY(+2)] | 17.2 µM | 30.8 µM |  |
